Earlier results, collected in PMC8480781.

Assays:
Glu66 = Glu66 (UniProt position 148, FTKKMEENAKK); test: stability; settings: PHS V66E; state not stated
Lys66 = Lys66 (UniProt position 148, FTKKMKENAKK); test: potentiometry; settings: PHS V66K; state not stated

Row | Substance | pKa (Glu66) | pKa (Lys66)
1 | Staphylococcal nuclease PHS V66E (Staphylococcus aureus; P117G;H124L;S128A;V66E) | 8.73–9.28 | –
2 | Staphylococcal nuclease PHS V66K (Staphylococcus aureus; P117G;H124L;S128A;V66K) | – | 6.25–6.45
